{"source": "patent US20160138094", "key": {"[1]": {"test_system": "TALE_037 (TALE_97 with RVD N* opposite C6) repeat 5 RVD HD to N* (position 13 deleted) (Xanthomonas axonopodis pv. citri (engineered))", "assay": "inhibition"}, "[2]": {"test_system": "TALE_038 (TALE_97 with RVD NG opposite C6) repeat 5 RVD HD to NG (Xanthomonas axonopodis pv. citri (engineered))", "assay": "inhibition"}, "[3]": {"details": "5mC at target position 6, inhibition of Klenow exo- primer extension, MgCl2, room temperature"}, "[4]": {"details": "inhibition of Klenow exo- primer extension, MgCl2, room temperature"}}}
{"sequence": "TGGATTCCCACTCTTCAGCCCCAGCGTTACAGCATCTTCAGTGGCTTCTTCCACCGTGAGCTCTTCCGTTTCCACATCC / GGATGTGGAAACGGAAGA [t97_C6mC / p97_rev]", "values": [{"measurement": "IC50", "setting": "[1]; [3]", "value": 51, "unit": "nM"}, {"measurement": "IC50", "setting": "[2]; [3]", "value": 163, "unit": "nM"}]}
{"sequence": "TGGATTCCCACTCTTCAGCCCCAGCGTTACAGCATCTTCAGTGGCTTCTTCCACCGTGAGCTCTTCCGTTTCCACATCC / GGATGTGGAAACGGAAGA [t97_C6hmC / p97_rev]", "values": [{"measurement": "IC50", "setting": "[1]; 5hmC at target position 6, reduction of primer extension to 50% at about this TALE concentration", "value": 1500, "unit": "nM"}, {"measurement": "IC50", "setting": "[2]; 5hmC at target position 6, reduction of primer extension to 50%, estimated", "value": 2000, "unit": "nM"}]}
{"sequence": "TGGATTCCCACTCTTCAGCCCCAGCGTTACAGCATCTTCAGTGGCTTCTTCCACCGTGAGCTCTTCCGTTTCCACATCC / GGATGTGGAAACGGAAGA [t97 template / p97_rev primer]", "values": [{"measurement": "IC50", "setting": "[1]; [4]", "value": 60, "unit": "nM"}, {"measurement": "IC50", "setting": "[2]; [4]", "value": 357, "unit": "nM"}]}
